Assay results reported in patent publication US20060153851A1, “CLASP proteins” (ARBOR VITA CORPORATION, published 2006).

How the values were obtained:
GST-NeDLG fusion protein [1] = target: T1, GST-NeDLG fusion protein (human, UniProt Q92796); assay: biotinylated peptide titration on plate-bound GST fusion (FIG. 9B)
T1 sequence: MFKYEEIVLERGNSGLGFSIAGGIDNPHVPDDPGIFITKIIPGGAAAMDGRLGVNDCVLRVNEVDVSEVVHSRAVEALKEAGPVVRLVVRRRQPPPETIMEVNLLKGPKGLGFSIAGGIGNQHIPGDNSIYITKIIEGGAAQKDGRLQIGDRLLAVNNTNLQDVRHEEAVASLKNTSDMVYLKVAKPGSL
Description: 20 μM biotinylated synthetic peptide corresponding to the C-terminal 20 amino acids of CLASP-2 was reacted with the indicated plate bound GST fusion proteins (none=no GST fusion protein coated onto plate). Error bars indicate standard deviation of duplicate measurements. B. Affinity of CLASP 2-PDZ interactions. Varying concentrations of biotinylated CLASP-2 peptide were reacted with plate bound GST alone, GST-DLG1, GST-NeDLG, and GST-PSD95 fusion proteins. The binding to GST alone (<0.1 OD units) was subtracted from the binding to the fusion proteins and the remaining signal was divided by the signal observed upon addition of 30 μM CLASP-2 peptide to each PDZ domain-containing protein (0.4-1.0 OD units) and plotted. […] Data are means of duplicate data points, with standard errors between duplicate data points <10%. C. Inhibition of CLASP-2-PDZ binding. 5 μM biotinylated synthetic peptide corresponding to the C-terminal 20 amino acids of CLASP-2 was reacted with the indicated, plate-bound PDZ domain-containing GST fusion proteins in the presence or absence of 100 μM competitor peptide. CLASP-2 Inhibitor refers to a synthetic peptide composed of the eight C-terminal amino acids of CLASP-2. […]
The binding of a biotinylated carboxyl-terminal peptide to a GST-PDZ fusion protein is measured as follows: [0470] […]

GST-DLG1 fusion protein = GST-DLG1 fusion protein (Homo sapiens (Human), UniProt Q12959); assay: varying concentrations of biotinylated peptide on plate-bound GST fusion, streptavidin-HRP, fit to a saturation binding curve (FIG. 9B)
Description: (§1) 20 μM biotinylated synthetic peptide corresponding to the C-terminal 20 amino acids of CLASP-2 was reacted with the indicated plate bound GST fusion proteins (none=no GST fusion protein coated onto plate). Error bars indicate standard deviation of duplicate measurements. B. Affinity of CLASP 2-PDZ interactions. Varying concentrations of biotinylated CLASP-2 peptide were reacted with plate bound GST alone, GST-DLG1, GST-NeDLG, and GST-PSD95 fusion proteins. The binding to GST alone (<0.1 OD units) was subtracted from the binding to the fusion proteins and the remaining signal was divided by the signal observed upon addition of 30 μM CLASP-2 peptide to each PDZ domain-containing protein (0.4-1.0 OD units) and plotted. […] Data are means of duplicate data points, with standard errors between duplicate data points <10%. C. Inhibition of CLASP-2-PDZ binding. 5 μM biotinylated synthetic peptide corresponding to the C-terminal 20 amino acids of CLASP-2 was reacted with the indicated, plate-bound PDZ domain-containing GST fusion proteins in the presence or absence of 100 μM competitor peptide. CLASP-2 Inhibitor refers to a synthetic peptide composed of the eight C-terminal amino acids of CLASP-2. KV1.3 Inhibitor refers to a synthetic peptide composed of the 19 C-terminal amino acids of KV1.3, a lymphocyte potassium channel. The amino acid sequence of the KV1.3 inhibitor is […]. D. Inhibition of KV1.3-PDZ binding. 5 μM biotinylated synthetic peptide corresponding to the C-terminal 19 amino acids of KV1.3 was reacted with the indicated, plate-bound PDZ-domain containing GST fusion proteins in the presence or absence of 100 μM CLASP-2 Inhibitor (see FIG. 9C legend).
(§2) The binding of a biotinylated carboxyl-terminal peptide to a GST-PDZ fusion protein is measured as follows: [0470] (1) GST fusion protein containing one or more PDZ domain(s) is coated onto a protein-binding surface. […]

GST-NeDLG fusion protein [2] = target: T1, GST-NeDLG fusion protein; assay: as above
Description: as §1, §2

GST-PSD95 fusion protein = GST-PSD95 fusion protein (Homo sapiens (Human), UniProt P78352); assay: as above
Description: as §1, §2

- Ka (GST-NeDLG fusion protein [1]): ≥ 10000 M⁻¹
- Kd (GST-DLG1 fusion protein): 21 µM
- Kd (GST-NeDLG fusion protein [2]): 7.5 µM
- Kd (GST-PSD95 fusion protein): 45 µM
B1: biotinylated synthetic peptide corresponding to the C-terminal 20 amino acids of CLASP-2 (peptide)
peptide: VLHHHQNPEFYDEIKIELPTQLHEKHHLLLTFFHVSCDNSSKGSTKKRDVVETQVGYSWLPLLKDGRVVTSEQHIPVSANLPSGYLGYQELGMGRHYGPEIKWVDGGKPLLKISTHLVSTVYTQDQHLHNFFQYCQKTESGAQALGNELVKYLKSLHAMEGHVMIAFLPTILNQLFRVLTRATQEEVAVNVTRVIIHVVAQCHEEGLESHLRSYVKYAYKAEPYVASEYKTVHEELTKSMTTILKPSADFLTSNKLLRYSWFFFDVLIKSMAQHLIENSKVKLLRNQRFPASYHHAAETVVNMLMPHITQKFGDNPEASKNANHSLAVFIKRCFTFMDRGFVFKQINNYISCFAPGDPKTLFEYKFEFLRVVCNHEHYIPLNLPMPFGKGRIQRYQDLQLDYSLTDEFCRNHFLVGLLLREVGTALQEFREVRLIAISVLKNLLIKHSFDDRYASRSHQARIATLYLPLFGLLIENVQRINVRDVSPFPVNAGMTVKDESLALPAVNPLVTPQKGSTLDNSLHKDLLGAISGIASPYTTSTPNINSVRNADSRGSLISTDSGNSLPERNSEKSNSLDKHQQSSTLGNSVVRCDKLDQSEIKSLLMCFLYILKSMSDDALFTYWNKASTSELMDFFTISEVCLHQFQYMGKRYIARNQEGLGPIVHDRKSQTLPVSRNRTGMMHARLQQLGSLDNSLTFNHSYGHSDADVLHQSLLEANIATEVCLTALDTLSLFTLAFKNQLLADHGHNPLMKKVFDVYLCFLQKHQSETALKNVFTALRSLIYKFPSTFYEGRADMCAALCYEILKCCNSKLSSIRTEASQLLYFLMRNNFDYTGKKSFVRTHLQVIISVSQLIADVVGIGETRFQQSLSIINNCANSDRLIKHTSFSSDVKDLTKRIRTVLMATAQMKEHENDPEMLVDLQYSLAKSYASTPELRKTWLDSMARIHVKNGDLSEAAMCYVHVTALVAEYLTRKGVFRQGCTAFRVITPNIDEEASMMEDVGMQDVHFNEDVLMELLEQCADGLWKAERYELIADIYKLIIPIYEKRRDFFEDEDGKEYIYKEPKLTPLSEISQRLLKLYSDKFGSENVKMIQDSGKVNPKDLDSKYAYIQVTHVIPFFDEKELQERKTEFERSHNIRRFMFEMPFTQTGKRQGGVEEQCKRRTILTAIHCFPYVKKRIPVMYQHHTDLNPIEVAIDEMSKKVAELRQLCSSAEVDMIKLQLKLQGSVSVQVNAGPLAYARAFLDDTNTKRYPDNKVKLLKEVFRQFVEACGQALAVNERLIKEDQLEYQEEMKANYREMAKELSEIMHEQICPLEEKTSVLPNSLHIFNAISGTPTSTMVHGMTSSSSVV
modifications: biotin at the amino-terminus
